This passage reports Km, kcat and kcat/Km results from paper PMC12490080, “Natural variation in Arabidopsis thaliana highlights a key role of glyoxalase I;2 in detoxifying glucose-derived reactive carbonyl species” (BMC Plant Biology, 2025).

Substrate in data set [1]: CC(=O)C=O
Kind of data set: purified protein. It counts as biochemical, Arabidopsis thaliana. The following applies: true substrate is the hemithioacetal of MGO and GSH (preformed 30 min; HTA concentration calculated with Kdiss 3.0 mM), 1.7 mM GSH, 0.5 mM Ni2+, 100 mM MOPS pH 7.0, 25 °C.

Substrate in data set [2]: O=CC=O
Kind of data set: purified protein. Type of data set: biochemical, Arabidopsis thaliana. The following applies: true substrate is the hemithioacetal of GO and GSH (preformed 30 min; HTA concentration calculated with Kdiss 3.0 mM), 1.7 mM GSH, 0.5 mM Mn2+, 100 mM MOPS pH 7.0, 25 °C.

What is called Km is the substrate concentration at which the rate is half of its maximum. In general, kcat refers to the maximal rate divided by the concentration of active sites. A word on the kcat/Km: it is the turnover number divided by the Michaelis constant.

B1: GLXI;2 (Col-0 GLXI;2) (Arabidopsis thaliana) (protein)
chain: MAEASDLLEWPKKDNRRFLHVVYRVGDLDRTIEFYTEVFGMKLLRKRDIPEEKYSNAFLGFGPETSNFVVELTYNYGVSSYDIGTGFGHFAISTQDVSKLVENVRAKGGNVTREPGPVKGGGSVIAFVKDPDGYTFELIQRGPTPEPFCQVMLRVGDLDRAIKFYEKALGMRLLRKIERPEYKYTIGMMGYAEEYESIVLELTYNYDVTEYTKGNAYAQIAIGTDDVYKSGEVIKIVNQELGGKITREAGPLPGLGTKIVSFLDPDGWKTVLVDNKDFLKELE
notes: monomer; two domains, active site 2 (His89, Glu137, Gln150, Glu201)
For the protein B1, in the data set “purified protein [1]”, the Km is 297 ± 14 µM, the turnover number (kcat) is 7.5 ± 0.9 s⁻¹ and the catalytic efficiency (kcat/Km) was 25300 ± 1700 M⁻¹ s⁻¹. Moreover, in the data set “purified protein [2]”, the Michaelis constant (Km) is 411 ± 18 µM, the turnover number (kcat) was 2.8 ± 0.3 s⁻¹ and the specificity constant (kcat/Km) is 6800 ± 600 M⁻¹ s⁻¹.

B2: GLXI;2 (Col-0 GLXI;2) (Arabidopsis thaliana; F278I) (protein)
chain: MAEASDLLEWPKKDNRRFLHVVYRVGDLDRTIEFYTEVFGMKLLRKRDIPEEKYSNAFLGFGPETSNFVVELTYNYGVSSYDIGTGFGHFAISTQDVSKLVENVRAKGGNVTREPGPVKGGGSVIAFVKDPDGYTFELIQRGPTPEPFCQVMLRVGDLDRAIKFYEKALGMRLLRKIERPEYKYTIGMMGYAEEYESIVLELTYNYDVTEYTKGNAYAQIAIGTDDVYKSGEVIKIVNQELGGKITREAGPLPGLGTKIVSFLDPDGWKTVLVDNKDILKELE
notes: as for B1
Regarding B2, in the data set “purified protein [1]”, the Km was 311 ± 18 µM, the turnover number (kcat) is 8.4 ± 1.2 s⁻¹ and the catalytic efficiency (kcat/Km) is 27000 ± 2400 M⁻¹ s⁻¹. For the same protein, in the data set “purified protein [2]”, the Michaelis-Menten constant (Km) was 403 ± 12 µM, the catalytic constant (kcat) is 2.5 ± 0.4 s⁻¹ and the kcat/Km is 6200 ± 300 M⁻¹ s⁻¹.

B3: GLXI;2 (Col-0 GLXI;2) (Arabidopsis thaliana; F278I/K229N) (protein)
chain: MAEASDLLEWPKKDNRRFLHVVYRVGDLDRTIEFYTEVFGMKLLRKRDIPEEKYSNAFLGFGPETSNFVVELTYNYGVSSYDIGTGFGHFAISTQDVSKLVENVRAKGGNVTREPGPVKGGGSVIAFVKDPDGYTFELIQRGPTPEPFCQVMLRVGDLDRAIKFYEKALGMRLLRKIERPEYKYTIGMMGYAEEYESIVLELTYNYDVTEYTKGNAYAQIAIGTDDVYNSGEVIKIVNQELGGKITREAGPLPGLGTKIVSFLDPDGWKTVLVDNKDILKELE
notes: as for B1
With B3, in “purified protein [1]”, the Michaelis constant (Km) was 302 ± 15 µM, the kcat was 8.1 ± 1.1 s⁻¹ and the kcat/Km was 25800 ± 2100 M⁻¹ s⁻¹. In “purified protein [2]”, the Km is 407 ± 15 µM, the catalytic constant (kcat) is 2.6 ± 0.3 s⁻¹ and the kcat/Km was 6700 ± 500 M⁻¹ s⁻¹.

B4: GLXI;2 (Col-0 GLXI;2) (Arabidopsis thaliana; K229N) (protein)
chain: MAEASDLLEWPKKDNRRFLHVVYRVGDLDRTIEFYTEVFGMKLLRKRDIPEEKYSNAFLGFGPETSNFVVELTYNYGVSSYDIGTGFGHFAISTQDVSKLVENVRAKGGNVTREPGPVKGGGSVIAFVKDPDGYTFELIQRGPTPEPFCQVMLRVGDLDRAIKFYEKALGMRLLRKIERPEYKYTIGMMGYAEEYESIVLELTYNYDVTEYTKGNAYAQIAIGTDDVYNSGEVIKIVNQELGGKITREAGPLPGLGTKIVSFLDPDGWKTVLVDNKDFLKELE
notes: as for B1
With B4, in “purified protein [1]”, the Km is 295 ± 23 µM, the kcat is 9.1 ± 1.7 s⁻¹ and the specificity constant (kcat/Km) was 26400 ± 2200 M⁻¹ s⁻¹. Besides, in the data set “purified protein [2]”, the Km was 415 ± 17 µM, the kcat is 2.4 ± 0.3 s⁻¹ and the catalytic efficiency (kcat/Km) was 6500 ± 500 M⁻¹ s⁻¹.
